The source of these data is article PMC12207370, “Macrocyclic Peptide Probes for Immunomodulatory Protein CD59: Potent Modulators of Bacterial Toxin Activity and Antibody‐Dependent Cytotoxicity” (Angewandte Chemie (International Ed. in English), 2025).

This experiment addresses T1, biotinylated CD59 (Homo sapiens, UniProt P13987).
T1 construct: Recombinant soluble human CD59 with an additional C-terminal cysteine residue
T1 sequence (P13987 26-102 limits assumed): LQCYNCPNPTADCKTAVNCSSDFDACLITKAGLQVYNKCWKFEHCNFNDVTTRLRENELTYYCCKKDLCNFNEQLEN
Nature of the experiment: mRNA-display cyclic peptide screen against CD59-biotin, NGS abundance after 6th selection round. The conditions noted are these: for Percentage Seq I: counts normalised by total counts of sample Seq I; for Percentage Seq I / Percentage Seq II: percentage of the pool; for Percentage Seq I / Percentage Seq II / Percentage Average / Percentage of the pool, averaged across the two sequencing samples / Percentage of the pool, Seq I / Percentage of the pool, Seq II: sheet R6; for Percentage Seq II: counts normalised by total counts of sample Seq II; for Percentage Average: percentage of the pool averaged across the two sequencing samples; for Counts Seq I / Counts Seq II: raw NGS counts of peptide sequence; for Counts Seq I: sequencing sample Seq I; for Counts Seq I / Counts Seq II / Counts (raw counts for peptide sequence), Seq I / Counts (raw counts for peptide sequence), Seq II: sheet R6 (6th selection round); for Counts Seq II: sequencing sample Seq II; for Counts (raw counts for peptide sequence), Seq I: NGS sample Seq I; for Counts (raw counts for peptide sequence), Seq II: NGS sample Seq II; for Percentage of the pool, averaged across the two sequencing samples: average of Seq I and Seq II; for Percentage of the pool, Seq I: counts normalised by total counts of NGS sample Seq I; for Percentage of the pool, Seq II: counts normalised by total counts of NGS sample Seq II. The gist of the method:
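Peptide–mRNA fusions were made by in vitro translation with a customised PURE express kit. The kit lacked release factor 1 and methionine and was supplemented with […] initiator tRNA carrying N-chloroacetyl-d-tyrosine. Thioether macrocycles were formed, then enriched and amplified over iterative rounds on CD59-biotin immobilised on streptavidin beads. NGS read counts per sequence were recorded after the 6th selection round.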

With GYLNECWYGLS, the “Percentage Seq I” value was 0.101%, the “Percentage Seq II” value is reported as 0.081%, the “Percentage Average” value is listed as 0.091% and the “Counts Seq I” value is listed as 441. In addition, the “Counts Seq II” value is recorded as 35.

As to FVTGNRDHTRV, the “Counts (raw counts for peptide sequence), Seq I” value is on record as 35; the “Counts (raw counts for peptide sequence), Seq II” value amounted to 5; the “Percentage of the pool, averaged across the two sequencing samples” value is 0.010%; the “Percentage of the pool, Seq I” value is 0.008%. The “Percentage of the pool, Seq II” value was 0.012%.

Turning to CYGNSHAS, the “Counts (raw counts for peptide sequence), Seq I” value worked out at 36; the “Counts (raw counts for peptide sequence), Seq II” value was found to be 8; the “Percentage of the pool, averaged across the two sequencing samples” value came to 0.013%; the “Percentage of the pool, Seq I” value is reported as 0.008%. In addition, the “Percentage of the pool, Seq II” value is given as 0.019%.

For CYAAGSASWSRG, the “Counts (raw counts for peptide sequence), Seq I” value is 65; the “Counts (raw counts for peptide sequence), Seq II” value was 6; the “Percentage of the pool, averaged across the two sequencing samples” value was determined as 0.014%; the “Percentage of the pool, Seq I” value was determined as 0.015%. Further, the “Percentage of the pool, Seq II” value is given as 0.014%.

SWQNECFRLRT: the “Percentage Seq I” value worked out at 0.013%, the “Percentage Seq II” value was determined as 0.026%, the “Percentage Average” value stood at 0.019% and the “Counts Seq I” value came out at 58. The “Counts Seq II” value is on record as 11.

Take FVRGDQYSVLG: the “Percentage Seq I” value is on record as 0.056%, the “Percentage Seq II” value was found to be 0.081%, the “Percentage Average” value was 0.069% and the “Counts Seq I” value turned out to be 247. The “Counts Seq II” value is given as 35.

With CFAFRLSQTSV, the “Percentage Seq I” value was determined as 0.179%, the “Percentage Seq II” value is recorded as 0.146%, the “Percentage Average” value was 0.162% and the “Counts Seq I” value is 782. Moreover, the “Counts Seq II” value came to 63.

In the case of CFRNRVLEITST, the “Percentage Seq I” value is 0.042%, the “Percentage Seq II” value was 0.032%, the “Percentage Average” value turned out to be 0.037% and the “Counts Seq I” value is 183. Also, the “Counts Seq II” value came to 14.

Regarding ISGGRNWRAG, the “Counts (raw counts for peptide sequence), Seq I” value came out at 65; the “Counts (raw counts for peptide sequence), Seq II” value is listed as 6; the “Percentage of the pool, averaged across the two sequencing samples” value came out at 0.014%; the “Percentage of the pool, Seq I” value was determined as 0.015%. For the same sequence, the “Percentage of the pool, Seq II” value came out at 0.014%.

Take RGGTRDTIWG: the “Percentage Seq I” value is on record as 0.078%, the “Percentage Seq II” value is 0.063%, the “Percentage Average” value is reported as 0.070% and the “Counts Seq I” value was determined as 340. For the same sequence, the “Counts Seq II” value is recorded as 27.

As for SAWGNRKIQYY, the “Counts (raw counts for peptide sequence), Seq I” value is 55; the “Counts (raw counts for peptide sequence), Seq II” value was found to be 5; the “Percentage of the pool, averaged across the two sequencing samples” value is listed as 0.012%; the “Percentage of the pool, Seq I” value is 0.013%. Moreover, the “Percentage of the pool, Seq II” value came to 0.012%.

For the sequence CFAGRPTIDAV, the “Percentage Seq I” value was determined as 0.018%, the “Percentage Seq II” value is given as 0.028%, the “Percentage Average” value was 0.023% and the “Counts Seq I” value came to 80. Further, the “Counts Seq II” value was 12.

In the case of CFLKRDRSASI, the “Counts (raw counts for peptide sequence), Seq I” value stood at 56; the “Counts (raw counts for peptide sequence), Seq II” value is given as 7; the “Percentage of the pool, averaged across the two sequencing samples” value amounted to 0.015%; the “Percentage of the pool, Seq I” value came to 0.013%. Further, the “Percentage of the pool, Seq II” value stood at 0.016%.

VVHGGKDYQWS: the “Counts (raw counts for peptide sequence), Seq I” value is 64; the “Counts (raw counts for peptide sequence), Seq II” value is 5; the “Percentage of the pool, averaged across the two sequencing samples” value is recorded as 0.013%; the “Percentage of the pool, Seq I” value was 0.015%. The “Percentage of the pool, Seq II” value is listed as 0.012%.

Take HQECWARGSRE: the “Counts (raw counts for peptide sequence), Seq I” value worked out at 68; the “Counts (raw counts for peptide sequence), Seq II” value was 5; the “Percentage of the pool, averaged across the two sequencing samples” value is on record as 0.014%; the “Percentage of the pool, Seq I” value was found to be 0.016%. The “Percentage of the pool, Seq II” value was 0.012%.

With CFKHRLGTDSA, the “Percentage Seq I” value is recorded as 0.097%, the “Percentage Seq II” value was determined as 0.086%, the “Percentage Average” value is recorded as 0.091% and the “Counts Seq I” value came to 423. The “Counts Seq II” value was found to be 37.

As for CFSARAILDGGW, the “Percentage Seq I” value amounted to 0.249%, the “Percentage Seq II” value is 0.248%, the “Percentage Average” value worked out at 0.249% and the “Counts Seq I” value is 1089. Further, the “Counts Seq II” value turned out to be 107.

On to LWGAANYLKVIY, for which the “Percentage Seq I” value turned out to be 0.046%, the “Percentage Seq II” value was found to be 0.023%, the “Percentage Average” value is 0.035% and the “Counts Seq I” value is 201. The “Counts Seq II” value came to 10.

For CSAGRLTIDAV, the “Counts (raw counts for peptide sequence), Seq I” value is reported as 37; the “Counts (raw counts for peptide sequence), Seq II” value is recorded as 6; the “Percentage of the pool, averaged across the two sequencing samples” value is given as 0.011%; the “Percentage of the pool, Seq I” value came to 0.00846%. The “Percentage of the pool, Seq II” value is 0.014%.

QWNRWYGMDEL: the “Percentage Seq I” value was found to be 0.284%, the “Percentage Seq II” value is 0.260%, the “Percentage Average” value is 0.272% and the “Counts Seq I” value is listed as 1243. Further, the “Counts Seq II” value is given as 112.

Take IASGSLHFVFY: the “Percentage Seq I” value came to 0.027%, the “Percentage Seq II” value is listed as 0.032%, the “Percentage Average” value came out at 0.030% and the “Counts Seq I” value stood at 119. Also, the “Counts Seq II” value is 14.

As for IARGDWNHQFY, the “Percentage Seq I” value worked out at 0.514%, the “Percentage Seq II” value worked out at 0.450%, the “Percentage Average” value is reported as 0.482% and the “Counts Seq I” value is 2249. The “Counts Seq II” value was found to be 194.

Turning to HVIGNRSFTRG, the “Percentage Seq I” value amounted to 0.020%, the “Percentage Seq II” value amounted to 0.016%, the “Percentage Average” value came out at 0.018% and the “Counts Seq I” value was found to be 87. Moreover, the “Counts Seq II” value is listed as 7.

As for TFRKRLTATCGT, the “Percentage Seq I” value was determined as 0.016%, the “Percentage Seq II” value is on record as 0.028%, the “Percentage Average” value amounted to 0.022% and the “Counts Seq I” value stood at 68. In addition, the “Counts Seq II” value is reported as 12.

Take ISRGDARYTWG: the “Percentage Seq I” value is listed as 0.019%, the “Percentage Seq II” value is listed as 0.023%, the “Percentage Average” value came to 0.021% and the “Counts Seq I” value was found to be 83. In addition, the “Counts Seq II” value is 10.

As for LNPQGHCLLKL, the “Counts (raw counts for peptide sequence), Seq I” value is listed as 55; the “Counts (raw counts for peptide sequence), Seq II” value was determined as 8; the “Percentage of the pool, averaged across the two sequencing samples” value worked out at 0.016%; the “Percentage of the pool, Seq I” value is given as 0.013%. The “Percentage of the pool, Seq II” value came out at 0.019%.

With GRLNECHAIWP, the “Percentage Seq I” value came to 0.112%, the “Percentage Seq II” value came out at 0.104%, the “Percentage Average” value came to 0.108% and the “Counts Seq I” value is recorded as 488. Also, the “Counts Seq II” value was found to be 45.
